± gives the uncertainty stated by the source.
B1: Protein S100-G, residues 1 to 79; numbered along this chain, P02633 (parent)
chain: MSAKKSPEELKGIFEKYAAKEGDPNQLSKEELKLLLQTEFPSLLKGPSTLDELFEELDKNGDGEVSFEEFQVLVKKISQ

Variants of: B1
Assay: abundance fitness (aPCA) (normalised: wild type 0, dead -1); higher = more abundant; growth selection in yeast, the domain comes from the species named
Conditions: Bos taurus
Variant E56G has an abundance fitness of -0.006 ± 0.08. E56M showed an abundance fitness of -0.045 ± 0.087. Work on E56H yielded an abundance fitness of -0.005 ± 0.085. D58A gave an abundance fitness of -0.107 ± 0.071. In the case of D58E, the abundance fitness is reported as -0.109 ± 0.09. Work on D58Q yielded an abundance fitness of 0.068 ± 0.09. D58R showed an abundance fitness of -0.072 ± 0.067. Variant D58V has an abundance fitness of -0.058 ± 0.07. Variant D58P has an abundance fitness of -0.078 ± 0.079. D58F gave an abundance fitness of 0.054 ± 0.092. Work on D58H yielded an abundance fitness of -0.096 ± 0.083. D58I showed an abundance fitness of 0.027 ± 0.083. For D58T, the abundance fitness was 0.021 ± 0.07. Variant D58K has an abundance fitness of -0.008 ± 0.092. With D58Y the abundance fitness was -0.008 ± 0.088. D58S gave an abundance fitness of 0.025 ± 0.065. For D58N, the abundance fitness was -0.053 ± 0.084. Variant D58M has an abundance fitness of -0.026 ± 0.09. Variant D58G has an abundance fitness of 0.007 ± 0.077. With D58C the abundance fitness was -0.022 ± 0.089. In the case of D58W, the abundance fitness is reported as -0.027 ± 0.085. D58L showed an abundance fitness of 0.054 ± 0.064. With F54R the abundance fitness was -0.093 ± 0.063. F54V gave an abundance fitness of -0.015 ± 0.065. Variant F54Y has an abundance fitness of 0.064 ± 0.083. F54D showed an abundance fitness of 0.035 ± 0.088. With F54A the abundance fitness was -0.007 ± 0.068. F54N showed an abundance fitness of 0.039 ± 0.084. In the case of F54E, the abundance fitness is reported as -0.033 ± 0.084. In the case of F54W, the abundance fitness is reported as 0.04 ± 0.078. With F54H the abundance fitness was -0.054 ± 0.083. F54K showed an abundance fitness of -0.048 ± 0.076. Work on F54T yielded an abundance fitness of 0.03 ± 0.068. Work on F54Q yielded an abundance fitness of 0.004 ± 0.079. With F54I the abundance fitness was 0.051 ± 0.08. With F54G the abundance fitness was -0.038 ± 0.071. F54C gave an abundance fitness of -0.004 ± 0.08. F54L gave an abundance fitness of 0.04 ± 0.06. For F54S, the abundance fitness was 0.023 ± 0.062. F54M showed an abundance fitness of 0.007 ± 0.076. F54P showed an abundance fitness of -0.073 ± 0.073. With T49Q the abundance fitness was 0.04 ± 0.072. Variant T49Y has an abundance fitness of 0 ± 0.073. In the case of T49W, the abundance fitness is reported as -0.076 ± 0.087. Work on T49S yielded an abundance fitness of 0.018 ± 0.062. In the case of T49R, the abundance fitness is reported as -0.057 ± 0.069. Work on T49H yielded an abundance fitness of 0.047 ± 0.075. With T49N the abundance fitness was -0.109 ± 0.072. T49I showed an abundance fitness of -0.021 ± 0.078. In the case of T49C, the abundance fitness is reported as -0.12 ± 0.091. T49K gave an abundance fitness of -0.103 ± 0.068. Variant T49F has an abundance fitness of 0.032 ± 0.078. Variant T49D has an abundance fitness of -0.08 ± 0.095. With T49E the abundance fitness was -0.026 ± 0.095. T49P gave an abundance fitness of -0.051 ± 0.063. T49G gave an abundance fitness of -0.043 ± 0.087. With T49M the abundance fitness was -0.081 ± 0.07. With T49A the abundance fitness was 0.007 ± 0.074. Variant E64H has an abundance fitness of 0.048 ± 0.079. Work on E64P yielded an abundance fitness of 0.008 ± 0.077. For E64C, the abundance fitness was 0.032 ± 0.08. For E64N, the abundance fitness was -0.026 ± 0.12. Variant E64D has an abundance fitness of 0.049 ± 0.083. E64S gave an abundance fitness of 0.002 ± 0.065. For E64L, the abundance fitness was -0.055 ± 0.06. E64A showed an abundance fitness of 0.01 ± 0.07. Variant E64I has an abundance fitness of -0.101 ± 0.09. E64V gave an abundance fitness of -0.065 ± 0.067. Variant E64M has an abundance fitness of 0.035 ± 0.096. E64Q gave an abundance fitness of 0.081 ± 0.078. In the case of E64F, the abundance fitness is reported as -0.055 ± 0.085. E64T gave an abundance fitness of 0.073 ± 0.097. For E64W, the abundance fitness was 0.155 ± 0.077. In the case of E64K, the abundance fitness is reported as -0.028 ± 0.1. E64Y gave an abundance fitness of -0.049 ± 0.08. Work on E64G yielded an abundance fitness of 0.059 ± 0.076. L53K showed an abundance fitness of -0.033 ± 0.08. With L53M the abundance fitness was 0.015 ± 0.08. Work on L53C yielded an abundance fitness of -0.048 ± 0.08. Work on L53A yielded an abundance fitness of 0.055 ± 0.069. Variant L53P has an abundance fitness of 0.033 ± 0.076. L53Y gave an abundance fitness of -0.036 ± 0.084. For L53F, the abundance fitness was 0.077 ± 0.087. L53W gave an abundance fitness of 0.013 ± 0.073. In the case of L53E, the abundance fitness is reported as 0.031 ± 0.088. L53V gave an abundance fitness of 0.028 ± 0.066. L53H showed an abundance fitness of 0.026 ± 0.075. Work on L53G yielded an abundance fitness of -0.065 ± 0.069. Work on L53R yielded an abundance fitness of -0.031 ± 0.063. With L53T the abundance fitness was 0.036 ± 0.068. L53D showed an abundance fitness of 0.053 ± 0.094. For L53N, the abundance fitness was 0.109 ± 0.085. For L53Q, the abundance fitness was 0.028 ± 0.079. With L53I the abundance fitness was 0.041 ± 0.087. Work on P47K yielded an abundance fitness of -0.09 ± 0.089. Variant P47R has an abundance fitness of -0.05 ± 0.081. Work on P47Q yielded an abundance fitness of 0.051 ± 0.092. P47A showed an abundance fitness of 0.094 ± 0.094. Variant P47C has an abundance fitness of 0.04 ± 0.11. P47M gave an abundance fitness of -0.004 ± 0.091. P47F gave an abundance fitness of -0.015 ± 0.091. Variant P47L has an abundance fitness of -0.027 ± 0.074. Work on P47S yielded an abundance fitness of 0.073 ± 0.077. In the case of P47W, the abundance fitness is reported as -0.01 ± 0.12. For P47T, the abundance fitness was 0.085 ± 0.078. P47Y showed an abundance fitness of 0.042 ± 0.09. For P47V, the abundance fitness was 0.082 ± 0.084. With P47D the abundance fitness was -0.02 ± 0.12. For P47G, the abundance fitness was -0.023 ± 0.1. Work on G61Q yielded an abundance fitness of -0.021 ± 0.084. Variant G61P has an abundance fitness of 0.007 ± 0.079. In the case of G61R, the abundance fitness is reported as -0.042 ± 0.065. G61H gave an abundance fitness of -0.163 ± 0.081. G61S showed an abundance fitness of 0.019 ± 0.063. With G61T the abundance fitness was 0.006 ± 0.071. Variant G61Y has an abundance fitness of -0.065 ± 0.083. G61K showed an abundance fitness of -0.05 ± 0.085. G61C gave an abundance fitness of 0.026 ± 0.08. With G61I the abundance fitness was -0.019 ± 0.088. With G61W the abundance fitness was -0.024 ± 0.085. With G61F the abundance fitness was -0.006 ± 0.089. G61E gave an abundance fitness of 0.067 ± 0.1. G61L gave an abundance fitness of -0.063 ± 0.064. Work on G61V yielded an abundance fitness of -0.021 ± 0.073. Variant G61M has an abundance fitness of -0.026 ± 0.091. G61N showed an abundance fitness of -0.072 ± 0.08. Variant L50P has an abundance fitness of -0.059 ± 0.07. Work on L50C yielded an abundance fitness of 0.042 ± 0.085. For L50D, the abundance fitness was -0.068 ± 0.082. L50F showed an abundance fitness of -0.026 ± 0.083. In the case of L50T, the abundance fitness is reported as -0.013 ± 0.065. Work on L50I yielded an abundance fitness of 0.009 ± 0.077. L50V showed an abundance fitness of 0.082 ± 0.065. For L50Y, the abundance fitness was 0.024 ± 0.085. In the case of L50M, the abundance fitness is reported as -0.01 ± 0.077. With L50G the abundance fitness was -0.078 ± 0.066. With L50Q the abundance fitness was -0.028 ± 0.072. L50N gave an abundance fitness of -0.094 ± 0.081. Work on L50E yielded an abundance fitness of 0.007 ± 0.076. Variant L50R has an abundance fitness of -0.044 ± 0.058. Work on L50A yielded an abundance fitness of -0.044 ± 0.064. Work on L50K yielded an abundance fitness of -0.001 ± 0.07. L50S showed an abundance fitness of -0.034 ± 0.061. Work on K45W yielded an abundance fitness of -0.012 ± 0.1. In the case of K45Y, the abundance fitness is reported as -0.062 ± 0.074. Variant K45V has an abundance fitness of -0.029 ± 0.076. V65A showed an abundance fitness of -0.091 ± 0.07. Variant V65D has an abundance fitness of -0.86 ± 0.11. Variant V65C has an abundance fitness of -0.05 ± 0.078. For V65F, the abundance fitness was -0.002 ± 0.083. N60D showed an abundance fitness of 0.058 ± 0.093. Variant N60L has an abundance fitness of -0.034 ± 0.07. N60R showed an abundance fitness of 0.014 ± 0.071. Work on N60W yielded an abundance fitness of -0.091 ± 0.092. N60F gave an abundance fitness of -0.156 ± 0.092. With N60K the abundance fitness was -0.105 ± 0.084. For N60G, the abundance fitness was 0.027 ± 0.082. N60P gave an abundance fitness of 0.004 ± 0.08. With N60C the abundance fitness was -0.102 ± 0.087. Work on N60A yielded an abundance fitness of 0.101 ± 0.076. N60Q gave an abundance fitness of -0.043 ± 0.087. With N60H the abundance fitness was -0.05 ± 0.088. In the case of N60M, the abundance fitness is reported as -0.164 ± 0.087. In the case of N60S, the abundance fitness is reported as 0.04 ± 0.068. For N60E, the abundance fitness was 0.108 ± 0.1. N60I showed an abundance fitness of 0 ± 0.092. In the case of N60T, the abundance fitness is reported as -0.042 ± 0.078.
